{
  "source": "ChEMBL document CHEMBL3734689",
  "about": "“Enzyme kinetics and inhibition of histone acetyltransferase KAT8” (Eur J Med Chem, 2015)",
  "conditions_in_all_cases": "Homo sapiens",
  "key": {"[1]": {"compound": "CCCCCCCCCCCCCCCc1cccc(O)c1C(=O)O", "test": "Inhibition of recombinant N-terminal His6-tagged KAT8 (unknown origin) expressed in Escherichia Coli BL21 DE3 cells assessed as Vmax for histone H4 peptide at 240 uM"}, "[2]": {"compound": "CCCCCCCCCCCCCCCc1cccc(O)c1C(=O)O", "test": "Uncompetitive inhibition of recombinant N-terminal His6-tagged KAT8 (unknown origin) expressed in Escherichia Coli BL21 DE3 cells assessed as Km for acetyl coenzyme A at 240 uM"}, "[3]": {"compound": "CCCCCCCCCCCCCCCc1cccc(O)c1C(=O)O", "test": "Uncompetitive inhibition of recombinant N-terminal His6-tagged KAT8 (unknown origin) expressed in Escherichia Coli BL21 DE3 cells assessed as Vmax for acetyl coenzyme A at 240 uM"}, "[4]": {"compound": "CCCCCCCCCCCCCCCc1cccc(O)c1C(=O)O", "test": "Uncompetitive inhibition of recombinant N-terminal His6-tagged KAT8 (unknown origin) expressed in Escherichia Coli BL21 DE3 cells assessed as Km for acetyl coenzyme A at 160 uM"}, "[5]": {"compound": "CCCCCCCCCCCCCCCc1cccc(O)c1C(=O)O", "test": "Uncompetitive inhibition of recombinant N-terminal His6-tagged KAT8 (unknown origin) expressed in Escherichia Coli BL21 DE3 cells assessed as Vmax for acetyl coenzyme A at 160 uM"}, "[6]": {"compound": "CCCCCCCCCCCCCCCc1cccc(O)c1C(=O)O", "test": "Inhibition of recombinant N-terminal His6-tagged KAT8 (unknown origin) expressed in Escherichia Coli BL21 DE3 cells assessed as Vmax for histone H4 peptide at 80 uM"}, "[7]": {"compound": "CCCCCCCCCCCCCCCc1cccc(O)c1C(=O)O", "test": "Uncompetitive inhibition of recombinant N-terminal His6-tagged KAT8 (unknown origin) expressed in Escherichia Coli BL21 DE3 cells assessed as Vmax for acetyl coenzyme A at 80 uM"}, "[8]": {"compound": "CCCCCCCCCCCCCCCc1cccc(O)c1C(=O)O", "test": "Inhibition of recombinant N-terminal His6-tagged KAT8 (unknown origin) expressed in Escherichia Coli BL21 DE3 cells assessed as Vmax for histone H4 peptide at 160 uM"}, "[9]": {"compound": "CCCCCCCCCCCCCCCc1cccc(O)c1C(=O)O", "test": "Uncompetitive inhibition of recombinant N-terminal His6-tagged KAT8 (unknown origin) expressed in Escherichia Coli BL21 DE3 cells assessed as Km for acetyl coenzyme A at 80 uM"}},
  "data": [
    {"protein": "Histone acetyltransferase KAT8 (Homo sapiens), Q9H7Z6 (protein) MAAQGAAAAVAAGTSGVAGEGEPGPGENAAAEGTAPSPGRVSPPTPARGEPEVTVEIGETYLCRRPDSTWHSAEVIQSRVNDQEGREEFYVHYVGFNRRLDEWVDKNRLALTKTVKDAVQKNSEKYLSELAEQPERKITRNQKRKHDEINHVQKTYAEMDPTTAALEKEHEAITKVKYVDKIHIGNYEIDAWYFSPFPEDYGKQPKLWLCEYCLKYMKYEKSYRFHLGQCQWRQPPGKEIYRKSNISVYEVDGKDHKIYCQNLCLLAKLFLDHKTLYFDVEPFVFYILTEVDRQGAHIVGYFSKEKESPDGNNVACILTLPPYQRRGYGKFLIAFSYELSKLESTVGSPEKPLSDLGKLSYRSYWSWVLLEILRDFRGTLSIKDLSQMTSITQNDIISTLQSLNMVKYWKGQHVICVTPKLVEEHLKSAQYKKPPITVDSVCLKWAPPKHKQVKLSKK", "values": [
      {"measurement": "Vmax", "setting": "[1]", "result": 12, "unit": "pmol/min"},
      {"measurement": "Km", "setting": "[2]", "result": 1, "unit": "µM"},
      {"measurement": "Vmax", "setting": "[3]", "result": 6.1, "unit": "pmol/min"},
      {"measurement": "Km", "setting": "[4]", "result": 1.9, "unit": "µM"},
      {"measurement": "Vmax", "setting": "[5]", "result": 9.2, "unit": "pmol/min"},
      {"measurement": "Vmax", "setting": "[6]", "result": 12, "unit": "pmol/min"},
      {"measurement": "Vmax", "setting": "[7]", "result": 12, "unit": "pmol/min"},
      {"measurement": "Vmax", "setting": "[8]", "result": 12, "unit": "pmol/min"},
      {"measurement": "Km", "setting": "[9]", "result": 2.4, "unit": "µM"}
    ]}
  ]
}
